The values below come from paper PMC9637919.

Where two headings read alike, the source gives them in different places.

Holding throughout (assay): EMSA
Data set [1] has as its target T1, Csy complex (type I-F surveillance complex);Cas2/3 (;, UniProt Q02ML9;Q02MM0;Q02MM1;Q02MM2;Q02ML8 1-434;1-327;1-342;1-187;1-1076, |).
The target of data set [2] is T2, Csy complex (type I-F surveillance complex) (UniProt Q02ML9;Q02MM0;Q02MM1;Q02MM2 1-434;1-327;1-342;1-187).
T2 sequence 1: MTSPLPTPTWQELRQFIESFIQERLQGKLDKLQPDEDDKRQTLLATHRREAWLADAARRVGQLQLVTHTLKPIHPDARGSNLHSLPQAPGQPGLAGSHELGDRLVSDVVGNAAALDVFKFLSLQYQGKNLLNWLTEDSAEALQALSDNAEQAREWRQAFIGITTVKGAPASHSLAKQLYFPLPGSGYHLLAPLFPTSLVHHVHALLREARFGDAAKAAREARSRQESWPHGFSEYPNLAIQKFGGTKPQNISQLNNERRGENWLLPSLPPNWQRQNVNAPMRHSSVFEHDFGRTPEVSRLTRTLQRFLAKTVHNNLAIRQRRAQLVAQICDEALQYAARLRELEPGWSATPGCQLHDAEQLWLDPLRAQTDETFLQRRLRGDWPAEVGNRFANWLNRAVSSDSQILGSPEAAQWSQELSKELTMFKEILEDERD
T2 sequence 2: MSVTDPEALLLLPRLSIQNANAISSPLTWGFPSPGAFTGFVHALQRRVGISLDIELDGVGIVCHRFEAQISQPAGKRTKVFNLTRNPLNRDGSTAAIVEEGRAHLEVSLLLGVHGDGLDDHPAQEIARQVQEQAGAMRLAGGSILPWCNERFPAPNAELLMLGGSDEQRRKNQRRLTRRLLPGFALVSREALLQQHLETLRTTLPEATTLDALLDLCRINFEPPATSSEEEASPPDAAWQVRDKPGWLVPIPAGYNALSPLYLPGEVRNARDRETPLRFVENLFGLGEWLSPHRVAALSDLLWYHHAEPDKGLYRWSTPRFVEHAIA
T2 sequence 3: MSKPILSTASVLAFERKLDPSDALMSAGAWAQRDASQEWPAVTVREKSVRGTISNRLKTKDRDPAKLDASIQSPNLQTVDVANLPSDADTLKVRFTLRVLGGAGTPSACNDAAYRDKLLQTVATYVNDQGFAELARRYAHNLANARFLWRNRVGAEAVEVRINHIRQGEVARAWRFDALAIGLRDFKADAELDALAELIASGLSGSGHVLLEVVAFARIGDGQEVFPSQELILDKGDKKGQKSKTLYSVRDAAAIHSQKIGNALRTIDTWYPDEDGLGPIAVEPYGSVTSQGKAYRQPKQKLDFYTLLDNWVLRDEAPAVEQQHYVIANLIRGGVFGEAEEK
T2 sequence 4: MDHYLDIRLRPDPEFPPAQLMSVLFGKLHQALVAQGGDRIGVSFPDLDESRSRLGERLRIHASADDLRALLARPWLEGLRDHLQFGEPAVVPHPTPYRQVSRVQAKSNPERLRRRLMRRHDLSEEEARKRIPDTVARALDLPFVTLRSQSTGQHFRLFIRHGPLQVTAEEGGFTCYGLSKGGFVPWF

The target in data set [3] is Csy M (Cas8f R299G/R302A);Cas2/3 (;, UniProt Q02ML9;Q02MM0;Q02MM1;Q02MM2;Q02ML8 1-434;1-327;1-342;1-187;1-1076, R299G;R302A|).
Data set [4] has as its target T1, Csy complex (type I-F surveillance …). The source holds these as a separate data set.

B1: 54-bp target dsDNA, 5'-FAM TS (dsDNA)
DNA 1: GGAAGCCATCCAGGTAGACGCGGACATCAAGCCCGCCGTGAAGGTGCAGCTGCT
DNA 2: AGCAGCTGCACCTTCACGGCGGGCTTGATGTCCGCGTCTACCTGGATGGCTTCC
Usually Kd stands for a measure of binding affinity in units of concentration. Low values mean a tighter complex, high ones a looser complex. For B1, in data set [1], the binding result is reported as “binds”. The Kd in data set [2] came to 9.46 ± 0.82 nM.

B2: 54-bp dsDNA bubble, 5'-FAM TS (dsDNA)
DNA 1: GGAAGCCATCCAGGTAGACGCGGACATCAAGCCCGCCGTGAAGGTGCAGCTGCT
DNA 2: AGCAGCTGCACCAAGTGCCGCCGCTTGATGTCCGCGTCTACCTGGATGGCTTCC
For B2, the binding result in data set [3] and in data set [4] was “binds” each time. The Kd in data set [2] turned out to be 8.15 ± 0.62 nM.
